Assay results taken from article PMC6154995, “Heme-dependent Inactivation of 5-Aminolevulinate Synthase from Caulobacter crescentus” (Scientific Reports, 2018).

B1: 5-aminolevulinate synthase from Caulobacter crescentus, PLP form (yellow form) (enzyme)
chain: not shown
modifications: pyridoxal 5'-phosphate (PLP), predicted to bind to the ε-amino group of Lys248
notes: 5-aminolevulinate synthase (ALAS) of Caulobacter crescentus CB15, gene CC_1355, 408 residues, predicted mass 44,273 Da; gene PCR-amplified from genomic DNA; Same polypeptide as m2; also called cALAS; C. crescentus ALAS; source: E. coli BL21(DE3) pLysS, pET-28b, purified (HisTrap FF Crude, Mono Q; first, yellow eluate of the anion exchange column)
B2: 5-aminolevulinate synthase from Caulobacter crescentus, heme form (red form) (enzyme)
chain: not shown
notes: 5-aminolevulinate synthase (ALAS) of Caulobacter crescentus CB15, gene CC_1355, 408 residues, predicted mass 44,273 Da; gene PCR-amplified from genomic DNA; Same polypeptide as m1; also called cALAS; red form of cALAS; source: E. coli BL21(DE3) pLysS, pET-28b, purified (HisTrap FF Crude, Mono Q; second, reddish-brown eluate of the anion exchange column)

Target: the molecule itself
Assay: SEC + native gel or EMSA; data not shown; purified yellow (PLP) and red (heme) fractions of recombinant cALAS; oligomeric state in solution; conditions not given

| Protein | stoichiometry N |
| --- | --- |
| B1 | 2 |
| B2 | 2 |
